From the nanobody polyreactivity screen of Harvey et al. (2022)

Experiment: yeast display, Sf9 membrane polyspecificity reagent, FACS + sequencing; frameworks hold sequencing errors
Outline: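 Genes from sorted yeast were amplified by colony PCR, read by MiSeq 2 × 250 sequencing and filtered on CDR length. These cells carried a synthetic nanobody library in Saccharomyces cerevisiae BJ5465 and were sorted by FACS into low and high (top ~1%) gates on anti-HA and streptavidin fluorescence. Polyreactivity is labelled according to the gate of origin.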

Sequence	polyreactivity (PSR sort gate)
QVQLVESGGGLVQAGGSLRLSCAASGSIFYKNAMGWYRQAPGKVRELVAAITGSGGRTYYADSVKGRFTISRDNAKNTVYLQMNSLKPEDTAVYYCNTDPSPRYRYDYWGQGTQVTVSS	high polyreactivity
QVQLVESGGGLVQAGGSLRLSCAASGSIFYKNVMGWYRQAPGKEREFVAAISSSGGSTYYADSVKGRFTISRDNAKNTVYLQMNSLKPEDTAVYYCAATGWGLFRRRYDYWGQGTQVTVSS	low polyreactivity
QVQLVESGGGLVQAGGSLRLSCAASGSIFYKYALGWYRQAPGKERELVASITWSDGNTNYADSVKGRFTISRDNAKNTVYLQMNSLKPEDTAVYYCADGGWYPTSRIFDYWGQGTQVTVSS	low polyreactivity
QVQLVESGGGLVQAGGSLRLSCAASGSIFYKYAMGWYRQAPGKERELVAAISTSGGSTYYADSVKGRFTISRDNAKNTVYLQMNSLKPEDTAVYYCAKARSYGLGRSYYWGQGTQVTVSS	high polyreactivity
QVQLVESGGGLVQAGGSLRLSCAASGSIFYKYMGWYRQAPGKERELVAAITWSGGSTYYADSVKGRFTISRDNAKNTVYLQMNSLKPEDTAVYYCAARDYTRYGYGYWGQGTQVTVSS	high polyreactivity
QVQLVESGGGLVQAGGSLRLSCAASGSIFYLYAMGWYRHAPGKERELVATITVSGSSTYADSVKGRFTISRDNAKNTVYLQMISLKPEDTAVYYCAADGGRQVYTQLYDYWGQGTQVTVSS	low polyreactivity
QVQLVESGGGLVQAGGSLRLSCAASGSIFYLYAMGWYRPAPGKERELVAAISSGGSTYYADSVKGRFTISRDNAKNTVYLQMNSLKPEDTAVYYCNADSYYYPYDYWGQGTQVTVSS	low polyreactivity
QVQLVESGGGLVQAGGSLRLSCAASGSIFYLYAMGWYRQAPGKERELVAAINFRGGSTYADSVKGRFTISRDNAKNTVYLQMNSLKPEDTAVYYCAAKADYRMNYWGQGTQVTVSS	high polyreactivity
QVQLVESGGGLVQAGGSLRLSCAASGSIFYLYAMGWYRQAPGKERELVARITWSGGRTFYADSVKGRFTISRDNAKNTVYLQMNSLKPEDTAVYYCNARYHGKYDYWGQGTQVTVSS	high polyreactivity
QVQLVESGGGLVQAGGSLRLSCAASGSIFYLYAMGWYRQAPGKERELVATISLSSGSTYAASVKGRFTISRDNAKNTVYLQMNSLKPEDTAVDYCAKDLTRWGYNEYDYWGQGTQVSVSS	low polyreactivity
QVQLVESGGGLVQAGGSLRLSCAASGSIFYLYTMGWYRQATRKERELVAGISNGDRTYYADSVKGRFTISRDNAKNTVYFQMNSLKPEDTAVYYCAKGWYRIKRNDYWGQGTQVTVAS	low polyreactivity
QVQLVESGGGLVQAGGSLRLSCAASGSIFYLYVMGWYRQAPGKERELVAAINWSGSRTYYADSVKGRFTISRDNAKNTVYLQMNSLKPEDTAVYYCNAVRATGQASQEGEYWGQGTQVTVSS	high polyreactivity
QVQLVESGGGLVQAGGSLRLSCAASGSIFYNNSKGWYRPAPGKERELVAAISLRGGSTYYADSVKGRFTISRDNAKNTVYLQMNSLKPEDSAVYYCAAVTGARYYPARASRGKFDYWGQGTQVTVSS	high polyreactivity
QVQLVESGGGLVQAGGSLRLSCAASGSIFYNYAMGWSRQAPGKERELVAAITANTGSTYYADSVKGRFTISRVNAKNTVYLQMNSLKPEDTAVYYCATTWTIRRYRYSPRLVDYWGQGTQVTVSS	low polyreactivity
QVQLVESGGGLVQAGGSLRLSCAASGSIFYNYAMGWYRQAPGKERELVAAISQSGGSTRYADSVKGRFTISRDNAKNTVYVQMNSLKPEDTAVYYCAASRRKGQGSAGFGYWGQGTQVTVSS	high polyreactivity
QVQLVESGGGLVQAGGSLRLSCAASGSIFYNYAMGWYRQAPGKERELVAAISSNGGSTYYADSVKGRFTISRDNAKNTVYLQMNSLKPEDTAVYYCAKYLSPGERHSYDYWGQGTQVTVSS	high polyreactivity
QVQLVESGGGLVQAGGSLRLSCAASGSIFYNYGMGWYRQAPGKERELVAAIRASGDSTYYADSVKGRFTISRDNAKNTVYLQMNSLKPEDTAVYYCAARPNQSYYGLYFYWGQGTQVTVSS	low polyreactivity
QVQLVESGGGLVQAGGSLRLSCAASGSIFYPNAMGWYRQAPGKERELVAAISSSGGTNYADSVKGRFTISRDNAKNTVYLQMNSLKPEDTAVYYCNARDKVRYRYSRMDYWGQGTQVTVSS	low polyreactivity
QVQLVESGGGLVQAGGSLRLSCAASGSIFYPNAMGWYRQAPGKERELVAAITTGGSTNYADSVKGRFTISRDNAKNTVYLQMNSLKPEDTAVYYCNARHRYHSYTQPRWKYDYWGQGTQVTVSS	low polyreactivity
QVQLVESGGGLVQAGGSLRLSCAASGSIFYPYAMGWYRPAPGKERELVASITINDGSTYYADSVKGRFTISRDNAKNTVYLQMNSLKPEDTAVYYCNVEPVPGFGSEYEYWGQGTQVTVSS	low polyreactivity
QVQLVESGGGLVQAGGSLRLSCAASGSIFYPYAMGWYRQAPGKERELVAAIDYSDGSTYYADSVKGRFTISRDNAKNTVYLQMNSLKPEDTAVYYCAADGTYVWGSEEGNYWGQGTQVTVSS	low polyreactivity
QVQLVESGGGLVQAGGSLRLSCAASGSIFYPYAMGWYRQAPGKERELVAAIRWRGGNTYYADSVKGRFTFSRDNAKNTVYLQMNSLKPEDTAVYYCAADGKYLQGFGYYYWGQGTQVTVSS	high polyreactivity

Sequence	polyreactivity (PSR sort gate)
QVQLVESGGGLVQAGGSLRLSCAASGSIFYPYAMGWYRQAPGKERELVAAISSGGTTYYADSVKGRFTISRDNAKNTVYLQMNSLKPEDTAVYYCAAGFYLRAVWMDYWGQGTQVTVSS	high polyreactivity
QVQLVESGGGLVQAGGSLRLSCAASGSIFYQNAMGWYRQAPGKEREFVAAIRSSGSSTYYADSVKGRFTISRDNAKNTVYVQMNCLKPEDTAVYYCAADNPGGYRGKVDYWGQGTQVTVSS	high polyreactivity
QVQLVESGGGLVQAGGSLRLSCAASGSIFYQYAMGWYRQAPGKERELVAAISRSGGSTYYADSVKGRFTISRDNPKNTVYLQMNSLKPEDTAGYYCAARAVRAAYDYWGQGSQVTVSS	low polyreactivity
QVQLVESGGGLVQAGGSLRLSCAASGSIFYQYAMGWYRQAPGKERELVAGITWSGGSTYYADSVKGRFTISRDNAKYTVYLQMNSLKPEDTAVFYCAAQYFWYVYSYDYWGQGTQVTVSS	high polyreactivity
QVQLVESGGGLVQAGGSLRLSCAASGSIFYQYAMGWYRQAPGKERELVARIRGSTGTTYYADSVKGRFTFSRDYAKNTVYLQMNSLKPEDNAVYYCNAARYQGRSRFDYWGQGTQVTVSS	high polyreactivity
QVQLVESGGGLVQAGGSLRLSCAASGSIFYRNAMGWYRQAPGKERELVAAISSDGSTNYADSVKVRFTISRDNAKNTVYLQMNSLKPEDTAVYYCAAPWTQILDYWGQGTQVTVSS	low polyreactivity
QVQLVESGGGLVQAGGSLRLSCAASGSIFYRNAMGWYRQAPGKERELVAAISWSGSRTYYADSVKGRFTISRDNAKNTVYLQMNSLKPEDTAVYYCNRQYNQWIHYYYRMDYWGQGTQVTVSS	high polyreactivity
QVQLVESGGGLVQAGGSLRLSCAASGSIFYRYAMGWYRQAPGKERELVAAISDRSGSTYYADSVKGRFTISRDNAKNTVYLQMNSLKPEDTAVYYCAAAYNYRAAGYGLSRYYYWGQGTQVTVSS	high polyreactivity
QVQLVESGGGLVQAGGSLRLSCAASGSIFYRYAMGWYRQAPGKERELVAAISSNGVSTYYADSVKGRFTISRDNAKNTVYLQMNSLKPEDTAVYYCARDVYASPRLYTSRYNYWGQGTQVTVSS	low polyreactivity
QVQLVESGGGLVQAGGSLRLSCAASGSIFYRYAMGWYRQAPGKERELVASISKSGGSTYYADSVKGRFTISRDNAKNTVYLQMNSLKPEDTAVYYCAKKPRGTVYRFDYWGQGTQVTVSS	high polyreactivity
QVQLVESGGGLVQAGGSLRLSCAASGSIFYRYAMGWYRQAPGKERELVASISSGVSTNYADSVKGRFTISRDNAKNTVYLQLNSLKPEDTAVYYCAVRHRYTRAYWGRDYWGQGTQVTVSS	low polyreactivity
QVQLVESGGGLVQAGGSLRLSCAASGSIFYRYAMGWYRQAPGKERELVATISSGGRTYYADSVKGRFTISRDNAKNTVYLQMNSLKPEVTAVYYCAAKRFSSPYWEYYWGQGTQVTVSS	high polyreactivity
QVQLVESGGGLVQAGGSLRLSCAASGSIFYRYAMGWYRQAPGKVRELVAAINNGGGRTYADSVKGRFTISRDNAKNTVYFQMNSLKPEDTAVYYCAKRTSRLAPYDYWGQGTQVTVSS	high polyreactivity
QVQLVESGGGLVQAGGSLRLSCAASGSIFYRYAMGWYRQGPGKERELVAGITRGGSTNYADSVKGRFTISRDNAMNTVYLQMNSLKPEDTAVYYCAARSYVYVHYYYWGQGTQVTVSS	high polyreactivity
QVQLVESGGGLVQAGGSLRLSCAASGSIFYRYSMGWYRQAPGKEREFVAAITWSGGSTYYADSVKGRFTISRDNAKNTVYLQMNSLKPEDTAVYYCAKDSGSYRVGIYEPFPYGYWGQGTQVTVSS	low polyreactivity
QVQLVESGGGLVQAGGSLRLSCAASGSIFYSNAMGWSRQAPGKEREFVAAISAGGGSTYYADSVKGRFTISRDNATNTVYLQMISLKPEDTAVYYCAADYFYPYYGAMDYWGQGTQVTVSS	low polyreactivity
QVQLVESGGGLVQAGGSLRLSCAASGSIFYSNAMGWYRQAPGKEREFVAAISAGGGSTYYADSVKGRFTISRDNAKNTVYLQMNSLKPEDTAVYYCAATDEYYIQVWFPYDYWGQGTQVTVSW	low polyreactivity
QVQLVESGGGLVQAGGSLRLSCAASGSIFYSNAMGWYRQAPGNERELVAAITYRGGRTYYADSVKGRFTISRDNAKNTVYLQKNSLKPEDTAVDYCAKVVRAQALDSIYNGRYDYWGEGTQVTVSS	low polyreactivity
QVQLVESGGGLVQAGGSLRLSCAASGSIFYSNAMVWYRQAPGKEREFVAAISTSAGRTYYADSVKGRFTISRDNAKNKVYLQLNSLNPEDTEVYYCAAGTNYGKLRIRFDYWGQGTQVTVSS	low polyreactivity
QVQLVESGGGLVQAGGSLRLSCAASGSIFYSNTMGWYRQAPGKERELVAAISSSSGRTYYADSVKGRFTISRDNAKNTGFLQMNSLKPEDTAVYYCARRYGWGQGTQVTVSS	high polyreactivity
QVQLVESGGGLVQAGGSLRLSCAASGSIFYSYAMGWYRQAPGKARELVATISWAGGRTNYADSVKGRFTISRDNAKNTEYLQMNSLKPEDTAVSYCNKPFPYYPDGPNGYDYWGQGTQVTVSS	low polyreactivity
